B1: TPRG1 (parent)
chain: ETIQGFWLLTKIDHWNNEKERILL
B2: PTPLAD1 (parent)
chain: YSFYMLTCIDMDWKVLTWLRYTLW

Variants of: B1
Test: protein stability index of a GFP-peptide fusion (GPS, HEK-293T) (PSI 1-6); higher = more stable
Settings: c terminus: a fixed tail appended
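Further: lentivirally expressed fusions sorted by FACS into six bins by GFP to DsRed ratio, PSI derived from sequencing read proportions per bin multiplied by bin number.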

Row | Variant | protein stability index
1 | ETIQGFCLLTKIDHWNNEKERILL [W7C] | 3.25
2 | ETIQGFKLLTKIDHWNNEKERILL [W7K] | 1.86
3 | ETIQGFRLLTKIDHWNNEKERILL [W7R] | 2.23
4 | ETIQGFPLLTKIDHWNNEKERILL [W7P] | 2.56
5 | ETIQGFLLLTKIDHWNNEKERILL [W7L] | 2.08
6 | ETIQGFMLLTKIDHWNNEKERILL [W7M] | 3.58
7 | ETIQGFTLLTKIDHWNNEKERILL [W7T] | 1.51
8 | ETIQGFVLLTKIDHWNNEKERILL [W7V] | 3.28
9 | ETIQGFSLLTKIDHWNNEKERILL [W7S] | 2.1
10 | ETIQGFHLLTKIDHWNNEKERILL [W7H] | 1.04
11 | ETIQGFDLLTKIDHWNNEKERILL [W7D] | 2.25
12 | ETIQGFALLTKIDHWNNEKERILL [W7A] | 1.91
13 | ETIQGFNLLTKIDHWNNEKERILL [W7N] | 2.18
14 | ETIQGFQLLTKIDHWNNEKERILL [W7Q] | 1.83
15 | ETIQGFGLLTKIDHWNNEKERILL [W7G] | 2.31
16 | ETIQGFELLTKIDHWNNEKERILL [W7E] | 1.93
17 | ETIQGFWLRTKIDHWNNEKERILL [L9R] | 1.49
18 | ETIQGFWLHTKIDHWNNEKERILL [L9H] | 1.87
19 | ETIQGFWLPTKIDHWNNEKERILL [L9P] | 2.7
20 | ETIQGFWLKTKIDHWNNEKERILL [L9K] | 1.54
21 | ETIQGFWLETKIDHWNNEKERILL [L9E] | 2.2
22 | ETIQGFWLMTKIDHWNNEKERILL [L9M] | 2.1
23 | ETIQGFWLNTKIDHWNNEKERILL [L9N] | 1.16
24 | ETIQGFWLSTKIDHWNNEKERILL [L9S] | 2.88
25 | ETIQGFWLTTKIDHWNNEKERILL [L9T] | 1.33
26 | ETIQGFWLCTKIDHWNNEKERILL [L9C] | 2.35
27 | ETIQGFWLGTKIDHWNNEKERILL [L9G] | 2.15
28 | ETIQGFWLDTKIDHWNNEKERILL [L9D] | 1.58

Row | Variant | protein stability index
29 | ETIQGFWLFTKIDHWNNEKERILL [L9F] | 3.19
30 | ETIQGFWLQTKIDHWNNEKERILL [L9Q] | 1.65
31 | ETIQGFWLITKIDHWNNEKERILL [L9I] | 3
32 | ETIQGFWLLYKIDHWNNEKERILL [T10Y] | 2.44
33 | ETIQGFWLLRKIDHWNNEKERILL [T10R] | 1.01
34 | ETIQGFWLLSKIDHWNNEKERILL [T10S] | 2.49
35 | ETIQGFWLLWKIDHWNNEKERILL [T10W] | 2.45
36 | ETIQGFWLLDKIDHWNNEKERILL [T10D] | 1.8
37 | ETIQGFWLLPKIDHWNNEKERILL [T10P] | 1.65
38 | ETIQGFWLLNKIDHWNNEKERILL [T10N] | 1.34
39 | ETIQGFWLLGKIDHWNNEKERILL [T10G] | 2.35
40 | ETIQGFWLLEKIDHWNNEKERILL [T10E] | 2.91
41 | ETIQGFWLLAKIDHWNNEKERILL [T10A] | 3.73
42 | ETIQGFWLLFKIDHWNNEKERILL [T10F] | 1.96
43 | ETIQGFWLLHKIDHWNNEKERILL [T10H] | 2.31
44 | ETIQGFWLLIKIDHWNNEKERILL [T10I] | 3.71
45 | EKIQGFWLLTKIDHWNNEKERILL [T2K] | 2.22
46 | EYIQGFWLLTKIDHWNNEKERILL [T2Y] | 3.19
47 | ECIQGFWLLTKIDHWNNEKERILL [T2C] | 1.55
48 | ERIQGFWLLTKIDHWNNEKERILL [T2R] | 3.03
49 | EEIQGFWLLTKIDHWNNEKERILL [T2E] | 2.51
50 | EPIQGFWLLTKIDHWNNEKERILL [T2P] | 1.61
51 | ELIQGFWLLTKIDHWNNEKERILL [T2L] | 1.67
52 | EHIQGFWLLTKIDHWNNEKERILL [T2H] | 1.67
53 | EQIQGFWLLTKIDHWNNEKERILL [T2Q] | 2.82
54 | EDIQGFWLLTKIDHWNNEKERILL [T2D] | 1.91
55 | ENIQGFWLLTKIDHWNNEKERILL [T2N] | 2.16

Variants of: B2
Test: as above
Settings: c terminus: a fixed tail appended

Row | Variant | protein stability index
56 | YSFYMLTCIDMDWKVLTWLRYCLW [T22C] | 2.07
57 | YSFYMLTCIDMDWKVLTWLRYRLW [T22R] | 2.25
58 | YSFYMLTCIDMDWKVLTWLRYQLW [T22Q] | 2.2
59 | YSFYMLTCIDMDWKVLTWLRYVLW [T22V] | 1.99
60 | YSFYMLTCIDMDWKVLTWLRYHLW [T22H] | 2.85
61 | YSFYMLTCIDMDWKVLTWLRYYLW [T22Y] | 2.26
62 | YSFYMLTCIDMDWKVLTWLRYNLW [T22N] | 2.27
63 | YSFYMLTCIDMDWKVLTWLRYFLW [T22F] | 2.08
64 | YSFYMLTCIDMDWKVLTWLRYALW [T22A] | 2.78
65 | YSFYMLTCIDMDWKVLTWLRYMLW [T22M] | 2.12
66 | YSFYMLTCIDMDWKVLTWLRYTLA [W24A] | 2.83
67 | YSFYMLTCIDMDWKVLTWLRYTLP [W24P] | 2.58
68 | YSFYMLTCIDMDWKVLTWLRYTLD [W24D] | 4.01
69 | YSFYMLTCIDMDWKVLTWLRYTLE [W24E] | 2.77
70 | YSFYMLTCIDMDWKVLTWLRYTLY [W24Y] | 2.72
71 | YSFYMLTCIDMDWKVLTWLRYTLH [W24H] | 3.02
72 | YSFYMLTCIDMDWKVLTWLRYTLG [W24G] | 2.39
73 | YSFYMLTCIDMDWKVLTWLRYTLM [W24M] | 3.14
74 | YSFYMLTCIDMDWKVLTWLRYTLC [W24C] | 2.42
75 | YSFYMLTCIDMDWKVLTWLRYTLI [W24I] | 3.4

Row | Variant | protein stability index
76 | YSFYMLTCIDMDWKVLTWLRYTLK [W24K] | 1.37
77 | YSFYMLTCIDMDWKVLTWLRYTLN [W24N] | 2.55
78 | YSFYMLTCIDMDWKVLTWLRYTLR [W24R] | 2.04
79 | YSFYMLTCIDMDWKVLTWLRYTLF [W24F] | 2.24
80 | YSFYMLTCIDMDWKVLTWLRYTFW [L23F] | 2.46
81 | YSFYMLTCIDMDWKVLTWLRYTWW [L23W] | 2.4
82 | YSFYMLTCIDMDWKVLTWLRYTPW [L23P] | 4.2
83 | YSFYMLTCIDMDWKVLTWLRYTAW [L23A] | 3.26
84 | YSFYMLTCIDMDWKVLTWLRYTDW [L23D] | 2.6
85 | YSFYMLTCIDMDWKVLTWLRYTIW [L23I] | 2.88
86 | YSFYMLTCIDMDWKVLTWLRYTQW [L23Q] | 3.84
87 | YSFYMLTCIDMDWKVLTWLRYTCW [L23C] | 4.3
88 | YSFYMLTCIDMDWKVLTWLRYTHW [L23H] | 2.58
89 | YSFYMLTCIDMDWKVLTWLRYTRW [L23R] | 4.16
90 | YSFYMLTCIDMDWKVLTWLRYTTW [L23T] | 4.8
91 | YSFYMLTCIDMDWKVLTWLRYTEW [L23E] | 2.74
92 | YSFYMLTCIDMDWKVLTWLRYTSW [L23S] | 2.99
93 | YSFYMLTCIDMDWKVLTWLRWTLW [Y21W] | 1.84
94 | YSFYMLTCIDMDWKVLTWLRVTLW [Y21V] | 2.28
